Measurements from publication PMC4756307.

The sequences below were run against T1, CodY (6His-CodY) (Streptococcus suis serotype 2 (strain SC19?)) (UniProt A0A0H3MTH0) (assay: EMSA). Settings: EMSA: 1 ug PCR product with 0-2200 ng CodY in binding buffer (Beyotime; composition, pH and salt not given), 30 min at 37 C, native PAGE, ethidium bromide ….
T1 sequence: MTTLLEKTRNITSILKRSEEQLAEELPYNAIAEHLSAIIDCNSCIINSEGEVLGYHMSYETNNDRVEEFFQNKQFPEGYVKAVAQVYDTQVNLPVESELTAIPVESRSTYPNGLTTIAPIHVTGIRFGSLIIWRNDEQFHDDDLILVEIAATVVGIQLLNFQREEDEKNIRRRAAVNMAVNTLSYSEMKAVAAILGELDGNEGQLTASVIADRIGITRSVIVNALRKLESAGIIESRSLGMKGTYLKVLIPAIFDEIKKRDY

Sequence | binding
AATACAAGCGACGATTCCCTTCGTTGCGATCGGGCTTAATCAAGCCTTGATCTTCATAGTAACGAATTTGACGAGCAGTTAAATCTGTCAACTTCATCACACTACCGATCGGAAAGATAGCTAAGGAACGACGAAACTCTTTTTCTCTCATAATGAACTCCTTTCTGCCTACCATTATAGGAGAATTTTTTTTTGAGGTCAATAGGTGATGTTATATTTTATAACATCATTTATCCTGAAAACGTTTTTTTATAACATTCACATCATAATTAACTAGAATCGCAATGAAAACTCC (double strand) [glnR promoter] | binds
ATCTCGGTCTTTGGTTGTTTGGCTTTACAGCTCTATACTTTGTGGCAGCTTATCTGATTGCCCTCAATCCATCTCAAATCTTAAATAGTATCGGACGTATTTTAACCCCTGTTTTTGCGATTTTGATTGTGATTTTGGTGGTGCTTGGTATTGTTAAGTACGGATCAACAAGTCCGTTACCAGCTTCGGAAGCTTACTCAGCAGGACAGGCATTTGGTACAGGATTTATCGAGGGATACAATACACTCGACGCACTTGCTTCTATTGCTTTTAGTGTCGTAGCAGTAAATACCT (double strand) [bap2 promoter] | binds
TCTGTATTTATCATTGTAGTCCTATCTGCAACAGTAGAAAATTATATTGTAAATTTAAGTTTTGTATTTATGCCAATATGTTTTTGTTTATTAAATTCTATATCTACTATGGAATCAACTATTAACAAACAACTGCAAACATAAATTGGCAGGAATAGAGTTTTGAGTTGCTATTAATTTGGTAGAGCATATGTTCTATAGGTGGCAAGATAGAAGATAGTATTTTTTACATGATGATTTTTATGATAGCA (double strand) [cps2J promoter] | binds
GGACGTATGCGCCTCTGCTTATGCCAGAAGTCATGAGGTAAATCTCCCTAAAAATTGGGTAGAAAAGCAGATTAAACTTCCACCAATCTATTGAAGATCGTGTGAAGAAGCAGGCTTTAGAAGCAACAAGCCCTGAGACTATTCGAAAGAAATCTAGGGCTATTTTTTCTAATCGGCTATCAGAAGTGAAGTAGCGATCTTTATTAGTGTTCTTTTACTACTTAAGGAAAACCAAGCTGCTCCCTCAAGACTTTATGGGAGCGATTTACAGTCATTT (double strand) [neuB (neu) promoter] | no binding
